These results are taken from patent US4757012A, “Ascorbic acid intermediates and process enzymes” (Genentech, Inc., priority 1984, dated 1988).

Substrate in series [1]: NC(=O)C1=CN([C@@H]2O[C@H](COP(=O)(O)OP(=O)(O)OC[C@H]3O[C@@H](n4cnc5c(N)ncnc54)[C@H](OP(=O)(O)O)[C@@H]3O)[C@@H](O)[C@H]2O)C=CC1
In words: 2,5-DKG reductase kinetic / substrate specificity assay with purified enzyme. In kind it is biochemical, Corynebacterium sp. ATCC 31090. The note with it: other: cofactor NADPH, 150 mM sodium phosphate buffer, pH 6.4, 25° C. The source says:
(§1) The following assay conditions were used to determine kinetic parameters: […]

Substrate in series [2]: O=C(O)C(=O)[C@@H](O)[C@H](O)C(=O)CO
The description is as above. In kind it is biochemical, Corynebacterium sp. ATCC 31090. The conditions noted are these: other: substrate 2,5-DKG, 150 mM sodium phosphate buffer, pH 6.4, 25° C.
Description: as §1

B1: 2,5-DKG reductase (Corynebacterium sp. ATCC 31090) (protein)
chain: MTVPSIVLNDGNSIPQLGYGVFKVPPADTQRAVEEALEVGYRHIDTAAIYGNEEGVGAAIAASGIARDDLFITTKLWNDRHDGDEPAAAIAESLAKLALDQVDLYLVHWPTPAADNYVHAWEKMIELRAAGLTRSIGVSNHLVPHLERIVAATGVVPAVNQIELHPAYQQREITDWAAAHDVKIESWGPLGQGKYDLFGAEPVTAAAAAHGKTPAQAVLRWHLQKGFVVFPKSVRRERLEENLDVFDFDLTDTEIAAIDAMDPGDGSGRVSAHPDEVD
notes: made in house; host or cells: Corynebacterium sp; ATCC 31090 (natural producer, native enzyme purified from cell paste, not recombinant)
For orientation: Km means the concentration of substrate that gives half-maximal velocity. B1: the values for the Km in series [1] and in series [2] were 0.0337 mM and 15.5 mM, respectively.
